Assay results: the supplement of paper PMC7877785
± gives the uncertainty stated by the source.

Test: self-splicing fitness, log relative to wild type (ln ratio); higher = more splicing; Tetrahymena group I intron in knt gene, E. coli kanamycin selection, DiMSum; sequences stand for … in CUCUCU…GGAGGGAAAAGUUAUCAGGCAUGCACCUGGUAGCUAGUCUUUAAACCAAUAGAUUGCAUCGGUUUAAAAGGCAAGACCGUCAAAUUGCGGGAAAGGGGUCAACAGCCGUUCAGUACCAAGUCUCAGGGGAAACUUUGAGAUGGCCUUGCAAAGGGUAUGGUAAUAAGCUGACGGACAUGGUCCUAACCACGCAGCCAAGUCCUAAGUCAACAGAUCUUCUGUUGAUAUGGAUGCAGUUCACAGACUAAAUGUCGGUCGGGGAAGAUGUAUUCUUCUCAUAAGAUAUAGUCGGACCUCUCCUUAAUGGGAGCUAGCGGAUGAAGUGAUGCAACACUGGAGCCGCUGGGAACUAAUUUGUAUGCGAAAGUAUAUUGAUUAGUUUUGGAGUACUCGUGGUCG
Method in brief: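 Fitness was computed with DiMSum as the error-weighted combination of replicate fold changes, kanamycin versus none, each normalised to wild type. The library randomised all eight intron nucleotides of the P1ex region, with the intron placed in the knt kanamycin-resistance gene on pET-22b(+) in E. coli BL21(DE3). Six replicate transformations were grown overnight at 37°C or 30°C on LB agar with or without 25 μg/mL kanamycin, plus 100 μg/mL carbenicillin, 50 μM IPTG and 0.2% rhamnose. Pooled colonies were amplicon-sequenced on an Illumina HiSeq 2500.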

| Sequence | self-splicing fitness (ln) (30 °C) | self-splicing fitness (ln) (37 °C) |
| --- | --- | --- |
| GCAAAGCAAUAUUACGAUUG | -3.55 ± 0.21 | -1.28 ± 0.15 |
| GCAAAGCAAUAUUACGCACA | -0.917 ± 0.12 | -0.182 ± 0.14 |
| GCAAAGCAAUAUUACGCAUC | -1.98 ± 0.16 | -1.4 ± 0.17 |
| GCAAAGCAAUAUUACGCCCA | -1.56 ± 0.16 | -0.194 ± 0.15 |
| GCAAAGCAAUAUUACGCCGU | -2.85 ± 0.21 | -2.46 ± 0.23 |
| GCAAAGCAAUAUUACGCCUA | -3.76 ± 0.42 | -1.11 ± 0.21 |
| GCAAAGCAAUAUUACGCGUC | -2.92 ± 0.28 | -1.94 ± 0.32 |
| GCAAAGCAAUAUUACGCUAG | -2.78 ± 0.088 | -2.51 ± 0.084 |
| GCAAAGCAAUAUUACGCUCG | -0.748 ± 0.17 | -0.86 ± 0.24 |
| GCAAAGCAAUAUUACGCUCU | -1.27 ± 0.075 | -0.565 ± 0.097 |
| GCAAAGCAAUAUUACGCUUA | -2.59 ± 0.15 | -1.46 ± 0.12 |
| GCAAAGCAAUAUUACGGCUU | -1.48 ± 0.11 | -0.763 ± 0.15 |
| GCAAAGCAAUAUUACGGUAA | -0.837 ± 0.12 | -0.921 ± 0.13 |
| GCAAAGCAAUAUUACGGUGG | -2.27 ± 0.12 | -2.43 ± 0.19 |
| GCAAAGCAAUAUUACGUCUA | -0.983 ± 0.13 | -0.637 ± 0.11 |
| GCAAAGCAAUAUUACGUGAC | -2.78 ± 0.12 | -1.1 ± 0.13 |
| GCAAAGCAAUAUUACGUGGG | -3.38 ± 0.15 | -3.07 ± 0.16 |
| GCAAAGCAAUAUUACGUGUU | -1.88 ± 0.086 | -1.03 ± 0.11 |
| GCAAAGCAAUAUUACGUUGA | -1.67 ± 0.088 | -1.03 ± 0.094 |
| GCACAGCAAUAUUACGACGA | -0.897 ± 0.13 | 0.243 ± 0.15 |
| GCACAGCAAUAUUACGACGU | -0.591 ± 0.073 | -0.0751 ± 0.088 |
| GCACAGCAAUAUUACGAGGG | -1.9 ± 0.091 | -1.14 ± 0.14 |
| GCACAGCAAUAUUACGAGGU | -1.85 ± 0.095 | 0.0148 ± 0.11 |
| GCACAGCAAUAUUACGAUGU | -2.05 ± 0.079 | -0.389 ± 0.088 |
| GCACAGCAAUAUUACGAUUU | -0.869 ± 0.042 | -0.0519 ± 0.058 |

| Sequence | self-splicing fitness (ln) (30 °C) | self-splicing fitness (ln) (37 °C) |
| --- | --- | --- |
| GCACAGCAAUAUUACGCAAG | -3.59 ± 0.24 | -2.51 ± 0.19 |
| GCACAGCAAUAUUACGCCAA | -3.77 ± 0.25 | -2.56 ± 0.2 |
| GCACAGCAAUAUUACGCCUA | -0.82 ± 0.13 | -0.373 ± 0.11 |
| GCACAGCAAUAUUACGCGAC | -1.75 ± 0.13 | -1.18 ± 0.16 |
| GCACAGCAAUAUUACGCUAC | -3.81 ± 0.37 | -2.29 ± 0.25 |
| GCACAGCAAUAUUACGGACG | -1.3 ± 0.14 | 0.0137 ± 0.14 |
| GCACAGCAAUAUUACGGAGC | -2.16 ± 0.15 | -2.1 ± 0.21 |
| GCACAGCAAUAUUACGGCUC | -0.268 ± 0.071 | 0.523 ± 0.076 |
| GCACAGCAAUAUUACGUAUC | -0.923 ± 0.061 | -0.833 ± 0.066 |
| GCACAGCAAUAUUACGUCCC | -0.0609 ± 0.11 | -0.44 ± 0.11 |
| GCACAGCAAUAUUACGUGGG | -1.53 ± 0.059 | -1.47 ± 0.067 |
| GCACAGCAAUAUUACGUUUA | -1.19 ± 0.066 | -0.603 ± 0.066 |
| GCAGAGCAAUAUUACGAAAC | -3.28 ± 0.14 | -2.23 ± 0.14 |
| GCAGAGCAAUAUUACGAACG | – | -1.78 ± 0.43 |
| GCAGAGCAAUAUUACGAAGU | -2.88 ± 0.12 | -1.03 ± 0.13 |
| GCAGAGCAAUAUUACGACAG | -3.01 ± 0.15 | -2.74 ± 0.26 |
| GCAGAGCAAUAUUACGACAU | -3.172 ± 0.023 | -2.06 ± 0.037 |
| GCAGAGCAAUAUUACGACUA | -2.45 ± 0.27 | -2.12 ± 0.24 |
| GCAGAGCAAUAUUACGACUU | -2.82 ± 0.16 | -0.936 ± 0.14 |
| GCAGAGCAAUAUUACGAGAA | – | -1.96 ± 0.32 |
| GCAGAGCAAUAUUACGAGAG | -3 ± 0.47 | -1.95 ± 0.32 |
| GCAGAGCAAUAUUACGAGUA | -3.23 ± 0.5 | -1.35 ± 0.43 |
| GCAGAGCAAUAUUACGAUCA | -4.02 ± 0.42 | -1.94 ± 0.18 |
| GCAGAGCAAUAUUACGCAAG | -3.03 ± 0.16 | -2.28 ± 0.17 |
| GCAGAGCAAUAUUACGCCUC | -2.46 ± 0.21 | -2.38 ± 0.34 |

| Sequence | self-splicing fitness (ln) (30 °C) | self-splicing fitness (ln) (37 °C) |
| --- | --- | --- |
| GCAGAGCAAUAUUACGCCUG | – | -1.33 ± 0.47 |
| GCAGAGCAAUAUUACGCGGA | -3.11 ± 0.34 | -2.91 ± 0.35 |
| GCAGAGCAAUAUUACGCGGU | -4.68 ± 0.29 | -3.16 ± 0.37 |
| GCAGAGCAAUAUUACGGACA | – | -0.844 ± 0.3 |
| GCAGAGCAAUAUUACGGGCC | – | -0.867 ± 0.3 |
| GCAGAGCAAUAUUACGGUCU | -3.54 ± 0.25 | -2.39 ± 0.27 |
| GCAGAGCAAUAUUACGUAGG | -2.17 ± 0.11 | -1.7 ± 0.14 |
| GCAGAGCAAUAUUACGUAUC | -2.59 ± 0.33 | -2.08 ± 0.41 |
| GCAGAGCAAUAUUACGUCCA | -2 ± 0.25 | -2.98 ± 0.4 |
| GCAGAGCAAUAUUACGUCGG | -2.57 ± 0.34 | -1.69 ± 0.46 |
| GCAGAGCAAUAUUACGUUAA | -1.87 ± 0.27 | -2.64 ± 0.42 |
| GCAUAGCAAUAUUACGAACG | -0.883 ± 0.14 | -0.356 ± 0.18 |
| GCAUAGCAAUAUUACGAAUC | -2.12 ± 0.33 | -1.55 ± 0.32 |
| GCAUAGCAAUAUUACGAUAC | -1.47 ± 0.13 | -0.915 ± 0.14 |
| GCAUAGCAAUAUUACGAUGG | -1.01 ± 0.09 | -0.54 ± 0.11 |
| GCAUAGCAAUAUUACGAUUC | -0.8 ± 0.083 | -0.436 ± 0.097 |
| GCAUAGCAAUAUUACGCAUU | -2.81 ± 0.26 | -0.0868 ± 0.17 |
| GCAUAGCAAUAUUACGCCCA | -2.41 ± 0.19 | -0.965 ± 0.16 |
| GCAUAGCAAUAUUACGCGAG | -2.42 ± 0.23 | -1.72 ± 0.17 |
| GCAUAGCAAUAUUACGCGUA | -1.43 ± 0.13 | -0.403 ± 0.12 |
| GCAUAGCAAUAUUACGCUAC | -3.61 ± 0.34 | -2.11 ± 0.27 |
| GCAUAGCAAUAUUACGGAAG | -3.8 ± 0.34 | -2.09 ± 0.37 |
| GCAUAGCAAUAUUACGGAAU | -2.21 ± 0.16 | -1.84 ± 0.23 |
| GCAUAGCAAUAUUACGGCGG | -2.63 ± 0.19 | -2.26 ± 0.37 |
| GCAUAGCAAUAUUACGGGGA | -3.23 ± 0.28 | -2.37 ± 0.19 |

| Sequence | self-splicing fitness (ln) (30 °C) | self-splicing fitness (ln) (37 °C) |
| --- | --- | --- |
| GCAUAGCAAUAUUACGGUAC | -2.07 ± 0.097 | -1.47 ± 0.091 |
| GCAUAGCAAUAUUACGGUAU | -2.86 ± 0.16 | -1.75 ± 0.12 |
| GCAUAGCAAUAUUACGUAAG | -1.63 ± 0.083 | -0.386 ± 0.12 |
| GCAUAGCAAUAUUACGUCGA | -1.63 ± 0.15 | -0.979 ± 0.15 |
| GCAUAGCAAUAUUACGUCUG | -1.87 ± 0.068 | -0.701 ± 0.072 |
| GCAUAGCAAUAUUACGUGGU | -3.13 ± 0.14 | -2.8 ± 0.15 |
| GCAUAGCAAUAUUACGUGUU | -3.84 ± 0.14 | -2.36 ± 0.088 |
| GCAUAGCAAUAUUACGUUCC | – | -2.25 ± 0.31 |
| GCCAAGCAAUAUUACGAACC | -2.03 ± 0.12 | -0.423 ± 0.14 |
| GCCAAGCAAUAUUACGAAGG | -2.52 ± 0.13 | -2.15 ± 0.22 |
| GCCAAGCAAUAUUACGACCA | -1.48 ± 0.17 | -1.36 ± 0.19 |
| GCCAAGCAAUAUUACGAGCU | -1.35 ± 0.12 | -1.46 ± 0.15 |
| GCCAAGCAAUAUUACGAGUU | -1.7 ± 0.066 | -0.45 ± 0.08 |
| GCCAAGCAAUAUUACGAUAA | -3.09 ± 0.17 | -1.6 ± 0.2 |
| GCCAAGCAAUAUUACGAUCG | -2.24 ± 0.22 | -2.42 ± 0.22 |
| GCCAAGCAAUAUUACGCAGG | -2.98 ± 0.17 | -2.05 ± 0.24 |
| GCCAAGCAAUAUUACGCGAC | -2.35 ± 0.11 | -0.858 ± 0.1 |
| GCCAAGCAAUAUUACGCUCG | -3.5 ± 0.2 | -1.84 ± 0.15 |
| GCCAAGCAAUAUUACGGAGA | -1.45 ± 0.086 | -0.924 ± 0.089 |
| GCCAAGCAAUAUUACGGCCG | -1.48 ± 0.23 | -2.11 ± 0.46 |
| GCCAAGCAAUAUUACGGCGA | -1.18 ± 0.093 | -0.756 ± 0.095 |
| GCCAAGCAAUAUUACGGCGG | -3.3 ± 0.14 | -1.84 ± 0.16 |
